In IntAct's records for PubMed 21057455:

B1: Transcription elongation factor SPT6 (Saccharomyces cerevisiae), P23615 (parent)
chain: MEETGDSKLVPRDEEEIVNDNDETKAPSEEEEGEDVFDSSEEDEDIDEDEDEARKVQEGFIVNDDDENEDPGTSISKKRRKHKRREREEDDRLSEDDLDLLMENAGVERTKASSSSGKFKRLKRVGDEGNAAESESDNVAASRQDSTSKLEDFFSEDEEEEESGLRNGRNNEYGRDEEDHENRNRTADKGGILDELDDFIEDDEFSDEDDETRQRRIQEKKLLREQSIKQPTQITGLSSDKIDEMYDIFGDGHDYDWALEIENEELENGNDNNEAEEEEIDEETGAIKSTKKKISLQDIYDLEDLKKNLMTEGDMKIRKTDIPERYQELRAGITDYGNMSSEDQELERNWIAEKISVDKNFDANYDLTEFKEAIGNAIKFITKENLEVPFIYAYRRNYISSREKDGFLLTEDDLWDIVSLDIEFHSLVNKKDYVQRFYAELHIDDPIVTEYFKNQNTASIAELNSLQDIYDYLEFKYANEINEMFINHTGKTGKKHLKNSSYEKFKASPLYQAVSDIGISAEDVGENISSQHQIHPPVDHPSSKPVEVIESILNANSGDLQVFTSNTKLAIDTVQKYYSLELSKNTKIREKVRSDFSKYYLADVVLTAKGKKEIQKGSLYEDIKYAINRTPMHFRRDPDVFLKMVEAESLNLLSVKLHMSSQAQYIEHLFQIALETTNTSDIAIEWNNFRKLAFNQAMDKIFQDISQEVKDNLTKNCQKLVAKTVRHKFMTKLDQAPFIPNVRDPKIPKILSLTCGQGRFGADAIIAVYVNRKGDFIRDYKIVDNPFDKTNPEKFEDTLDNIIQSCQPNAIGINGPNPKTQKFYKRLQEVLHKKQIVDSRGHTIPIIYVEDEVAIRYQNSERAAQEFPNKPPLVKYCIALARYMHSPLLEYANLTSEEVRSLSIHPHQNLLSSEQLSWALETAFVDIVNLVSVEVNKATDNNYYASALKYISGFGKRKAIDFLQSLQRLNEPLLARQQLITHNILHKTIFMNSAGFLYISWNEKRQKYEDLEHDQLDSTRIHPEDYHLATKVAADALEYDPDTIAEKEEQGTMSEFIELLREDPDRRAKLESLNLESYAEELEKNTGLRKLNNLNTIVLELLDGFEELRNDFHPLQGDEIFQSLTGESEKTFFKGSIIPVRVERFWHNDIICTTNSEVECVVNAQRHAGAQLRRPANEIYEIGKTYPAKVIYIDYANITAEVSLLDHDVKQQYVPISYSKDPSIWDLKQELEDAEEERKLMMAEARAKRTHRVINHPYYFPFNGRQAEDYLRSKERGEFVIRQSSRGDDHLVITWKLDKDLFQHIDIQELEKENPLALGKVLIVDNQKYNDLDQIIVEYLQNKVRLLNEMTSSEKFKSGTKKDVVKFIEDYSRVNPNKSVYYFSLNHDNPGWFYLMFKINANSKLYTWNVKLTNTGYFLVNYNYPSVIQLCNGFKTLLKSNSSKNRMNNYR
partner: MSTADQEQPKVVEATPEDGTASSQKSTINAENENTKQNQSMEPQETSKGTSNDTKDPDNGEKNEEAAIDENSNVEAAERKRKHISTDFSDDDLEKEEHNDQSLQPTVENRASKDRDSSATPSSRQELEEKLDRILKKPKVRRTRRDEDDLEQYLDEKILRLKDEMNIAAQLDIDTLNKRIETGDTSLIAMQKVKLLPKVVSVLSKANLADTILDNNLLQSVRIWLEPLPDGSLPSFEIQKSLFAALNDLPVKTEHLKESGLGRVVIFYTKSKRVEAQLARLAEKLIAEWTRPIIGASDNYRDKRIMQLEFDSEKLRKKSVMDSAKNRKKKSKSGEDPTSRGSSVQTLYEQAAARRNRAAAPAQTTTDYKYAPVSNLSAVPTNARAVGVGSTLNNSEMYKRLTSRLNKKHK
B2: Mediator of RNA polymerase II transcription subunit 13 (Saccharomyces cerevisiae), P38931 (parent)
chain: MSSDASTYRLEDVLSSFYRVEKIKKINYHQYISKAQNDQWSIQMEFMLRKQDPKTLVALLSRDLWCFSINDDPVPTPPAIEHKPVSPDKIGTFTADYSKPNLPPHYALFLKALRRKIYINLALGSHNKLIQFGNACISLSGVPNYLVQLEPHLFVNGDLTVSLCAKNMGLVPMKEENLEESFLSKHALYLAPSGIRMHLAPASKQGYLITPPKHTELLLTTLSVSHGINLQNKKNLKWVAVVPDLGHLNGHTPTIASYLTPLLEAKKLVWPLHLIFAQPVADIENSTSGDPSEFHCLQDALDAIDDFIQLKQTAAYRTPGSSGVLSSNIAGTNPLSSDGAYTEQFQHYKNNSISSQPASYHSVQETNKISPKDFSPNFTGIDKLMLSPSDQFAPAFLNTPNNNINENELFNDRKQTTVSNDLENSPLKTELEANGRSLEKVNNSVSKTGSVDTLHNKEGTLEQREQNENLPSDKSDSMVDKELFGEDEDEDLFGDSNKSNSTNESNKSISDEITEDMFEMSDEEENNNNKSINKNNKEMHTDLGKDIPFFPSSEKPNIRTMSGTTKRLNGKRKYLDIPIDEMTLPTSPLYMDPGAPLPVETPRDRRKSVFAPLNFNPIIENNVDNKYKSGGKFSFSPLQKEEALNFDISMADLSSSEEEEDEEENGSSDEDLKSLNVRDDMKPSDNISTNTNIHEPQYINYSSIPSLQDSIIKQENFNSVNDANITSNKEGFNSIWKIPQNDIPQTESPLKTVDSSIQPIESNIKMTLEDNNVTSNPSEFTPNMVNSEISNLPKDKSGIPEFTPADPNLSFESSSSLPFLLRHMPLASIPDIFITPTPVVTISEKEQDILDLIAEQVVTDYNILGNLGIPKIAYRGVKDCQEGLITTTMLQLFSTFDRLNGNDTISKFYNMKQPYVFVKKHHELIKVKHDSQPFIKFLNFRPPNGIKNFKSLLLSSSFKEDCLSFAPTLSQTYINQELGFCELLKLTNEDPPGLMYLKAFDKNKLLLLAAQIVSYCSNNKNSIKNVPPILIILPLDNATLTELVDKANIFQVIKNEVCAKMPNIELYLKVIPMDFIRNVLVTVDQYVNVAISIYNMLPPKSVKFTHIAHTLPEKVNFRTMQQQQMQQQQQQQQQQQNNSTGSSSIIYYDSYIHLAYSRSVDKEWVFAALSDSYGQGSMTKTWYVGNSRGKFDDACNQIWNIALNLASKKFGKICLILTRLNGILPDDELMNWRRLSGRNIHLAVVCVDDNSKISFIDEDKLYPSFKPIYKDTRFGGRMDMTRLYDYEIRDIDQDIHGIVFQHPFPLAHSQHRCAIRSGALIKFKKCDGDTVWDKFAVNLLNCPHSDSTQLLETILEEFRNLAALNVWYGLSDGEDGHIPWHILAVKKMMNTLVHTRVKIANTSAATVHTATSSSIILSDK
partner: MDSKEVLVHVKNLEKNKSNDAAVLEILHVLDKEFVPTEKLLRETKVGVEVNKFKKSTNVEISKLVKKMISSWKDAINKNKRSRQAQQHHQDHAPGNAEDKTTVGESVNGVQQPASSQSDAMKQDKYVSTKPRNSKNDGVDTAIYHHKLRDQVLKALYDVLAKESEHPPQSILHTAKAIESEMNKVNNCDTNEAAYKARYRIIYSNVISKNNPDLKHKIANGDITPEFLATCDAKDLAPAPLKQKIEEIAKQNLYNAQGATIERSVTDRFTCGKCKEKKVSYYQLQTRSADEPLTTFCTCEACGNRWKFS
B3: SAGA complex subunit SPT8 (Saccharomyces cerevisiae), P38915 (parent)
chain: MDEVDDILINNQVVDDEEDDEEMLSGLENDSKQDLEGNDDGGEDEEDDDDDDEDDDDDEDEREDDDEQEDDDGEDDAARMDKTATPTNEHQHDEQKAAAAGAGGAGDSGDAVTKIGSEDVKLSDVDGGVGSREASSSTHEASANGEVYEYYKHMLNAAQIADSYNIYPTAAIPIQTHVNALAVSRGLKYLFLGGSDGYIRKYDLLNTLEGKLSLTILQKHSLAESIQNAGILQSYWENEIPQKKSEMKLSANKTDYEPKVSPVHSLEVQSECLFILSGLQNGGITMQGVRYMEGSIAHYFKGRNGHTQIVNILRLNGQEDRFLSGSWDKRLLEWDLQTGDIVNEFKKSRSELSSLEMRPLYSSVDVSGNVNSGKENENADDDMDSLFGDEDEDEKQDAGNEPVETGDGSNGEENKEQISEESLNIVYDESVFMTSGLNGSVHIWDRRMTQSPALSLERGAGVPPWCLSACWGVDGDHVYAGRRNACVEQFDLKMPSKPIHNLKLPSISGPVSCVKAMPNNKHLLCASRDNIRLYNVEIAVDASNSTTKSSKVPFLIVPGHHGGIISNLYLDPTSRFIISTSGNRGWQGNSTDTTLIYDIDLE
partner: B2 partner

Variants of: B1
Settings: with iws1_yeast SPN1, Q06505

Variant	effect of a mutation on the interaction
I248A	disrupting interaction
F249A	disrupting interaction

Variants of: B2
Settings: with tfs2_yeast DST1, P07273

Variant	effect of a mutation on the interaction
F484A	decreasing interaction
L483A	decreasing interaction

Variants of: B3
Settings: with tfs2_yeast DST1, P07273

Variant	effect of a mutation on the interaction
L386A	disrupting interaction
F387A	disrupting interaction
